Data taken from publication doi:10.1101/2022.04.06.487319 (bioRxiv, 2022).
Values joined by “and” are separate entries in the source; they are usually repeats but may differ in a detail not shown here. Identical values can stand only once.

B3: Red1^I743R-MBP (Hop1-Red1 complex from Hi5 cells) (natural protein, Saccharomyces cerevisiae, UniProt P14291 1-827, looked up)
chain: MEGLKKKIFGVCLKNDLAQTRNETKGIHYGLMTLETSKQLQEFLHLLVIKREVIQNFELLFHIINVAVKITDSNLPSDDIWHFILKLRFSSEINIDEDSKVLNYLLETGIAMENPVSWKCLAVISSILSSVPQSKKIITNLIETEHAKKIGQLFDNIQDLQQGNFLVEILSNCFKKSASNSKKVEKIPQLWQSRSKNKFFFENEFYPFSSKNGSLQTCQFLCNNFMSTLSFTGILRQVSYSGSETLKNLRIFKKKDDENSYFIQCIYNKIYLWLDEKAPLEFERKKIRITKNLKNKIQIKLRQPFHECVRTTADKTALLFNKTKGFQLEFEDEKLGETFFHNVNNIPKISEVQNFLVLDYIEEEPENEGEEEEQIGRADEQKEDEEEESLDELSTPMVYPIKSSIPHNHNEKVQLVTPDRSVSIRSDEWDLKSNTEDEEGNVLADLKISSTKETKRQTDYVHIDSEDQSPVVSAQMRKMRRESTKTLEILRQEFKDKDVQNKEDQSEQIQNPFVNTSSLVVGKSCLVNPKEKPNIDQTVVGITELKSNSSIKKRDINILDTIFGQPPSKKQKQFHKKEKKKQQKKLTNFKPIIDVPSQDKRNLRSNAPTKPKSIKVSKLRTDKKVTGEKSSPETAAEKVDDQTVRSNDEQAMSRATKEKCFPDVNEGKEITKDDAKVSLESKKNNETFVDSSVVEKHTPPDKDCNNCNITDILESTTVIDLQSPHGLSAPGQNTFTNKLQEQRYSSINHFSNELVRKISIINQELNKKILKELSEKYQKLFSELQDNFQNDTNEMLKFMGEIKDMMNLPEDQLVHAIRTRKFDNNKR
B6: strep-Hop1 (full length, Hop1-Red1 complex from Hi5 cells) (natural protein, Saccharomyces cerevisiae, UniProt P20050 1-605, looked up)
chain: MSNKQLVKPKTETKTEITTEQSQKLLQTMLTMSFGCLAFLRGLFPDDIFVDQRFVPEKVEKNYNKQNTSQNNSIKIKTLIRGKSAQADLLLDWLEKGVFKSIRLKCLKALSLGIFLEDPTDLLENYIFSFDYDEENNVNINVNLSGNKKGSKNADPENETISLLDSRRMVQQLMRRFIIITQSLEPLPQKKFLTMRLMFNDNVDEDYQPELFKDATFDKRATLKVPTNLDNDAIDVGTLNTKHHKVALSVLSAATSSMEKAGNTNFIRVDPFDLILQQQEENKLEESVPTKPQNFVTSQTTNVLGNLLNSSQASIQPTQFVSNNPVTGICSCECGLEVPKAATVLKTCKSCRKTLHGICYGNFLHSSIEKCFTCIFGPSLDTKWSKFQDLMMIRKVFRFLVRKKKGFPASITELIDSFINVEDQNNEVKERVAFALFVFFLDETLCLDNGGKPSQTIRYVTSSVLVDVKGIVIPNTRKQLNVNHEYKWHFTTSSPKAESFYQEVLPNSRKQVESWLQDITNLRKVYSEALSPSSTLQELDLNSSLPTQDPIISGQKRRRYDLDEYLEEDKSSVVNDTIKAKDFDESVPAKIRKISVSKKTLKSNW

How the values were obtained:
strep-Hop1 FL K593A = target: T1, strep-Hop1 FL K593A (Saccharomyces cerevisiae, UniProt P20050 1-605, K593A); test: pull-down
T1 sequence (looked up): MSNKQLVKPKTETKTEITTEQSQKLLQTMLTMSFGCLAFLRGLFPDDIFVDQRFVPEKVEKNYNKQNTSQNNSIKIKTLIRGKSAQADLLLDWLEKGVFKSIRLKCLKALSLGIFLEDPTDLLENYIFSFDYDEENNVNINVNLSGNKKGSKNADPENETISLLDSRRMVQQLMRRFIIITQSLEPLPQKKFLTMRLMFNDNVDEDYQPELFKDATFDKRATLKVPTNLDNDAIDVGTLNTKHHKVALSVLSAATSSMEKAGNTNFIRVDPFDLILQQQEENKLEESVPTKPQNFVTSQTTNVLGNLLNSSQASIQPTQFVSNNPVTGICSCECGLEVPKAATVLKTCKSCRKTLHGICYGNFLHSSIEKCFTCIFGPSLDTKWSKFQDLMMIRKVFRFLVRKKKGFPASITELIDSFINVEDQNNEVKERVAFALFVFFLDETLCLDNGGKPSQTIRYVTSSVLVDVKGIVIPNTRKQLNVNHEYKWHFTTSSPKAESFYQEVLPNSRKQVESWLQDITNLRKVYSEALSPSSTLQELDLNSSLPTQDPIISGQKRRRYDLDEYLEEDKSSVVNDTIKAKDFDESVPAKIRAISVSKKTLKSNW

mass photometry = target: the molecule itself; test: mass photometry
SEC-MALS = target: the molecule itself; test: SEC-MALS
[1] = target: B6; test: mass photometry
[2] = target: B3; test: cross-linking
[3] = target: B3; test: pull-down

FHNVNNIPKISEVQNFLVLDYIE (peptide, UniProt P14291 340-362, looked up) [MBP-Red1 (340-362), wild-type closure motif]
binding result (strep-Hop1 FL K593A): binds

B1: MBP-Red1^733-827/I743R (domain or fragment, Saccharomyces cerevisiae, UniProt P14291 733-827, looked up)
chain: NTFTNKLQEQRYSSINHFSNELVRKISIINQELNKKILKELSEKYQKLFSELQDNFQNDTNEMLKFMGEIKDMMNLPEDQLVHAIRTRKFDNNKR
stoichiometry N (mass photometry): 2
stoichiometry N (SEC-MALS): 4

B2: MBP-Red1^733-827 (coiled-coil, WT) (domain or fragment, Saccharomyces cerevisiae, UniProt P14291 733-827, looked up)
chain: NTFTNKLQEQIYSSINHFSNELVRKISIINQELNKKILKELSEKYQKLFSELQDNFQNDTNEMLKFMGEIKDMMNLPEDQLVHAIRTRKFDNNKR
stoichiometry N (mass photometry): 2 and 4

B3
stoichiometry N [1]: 1

B4: MBP-Red1^733-819 (WT) (domain or fragment, Saccharomyces cerevisiae, UniProt P14291 733-819, looked up)
chain: NTFTNKLQEQIYSSINHFSNELVRKISIINQELNKKILKELSEKYQKLFSELQDNFQNDTNEMLKFMGEIKDMMNLPEDQLVHAIRT
stoichiometry N (mass photometry): 4

B5: MBP-Red1^733-819/I743R (domain or fragment, Saccharomyces cerevisiae, UniProt P14291 733-819, looked up)
chain: NTFTNKLQEQRYSSINHFSNELVRKISIINQELNKKILKELSEKYQKLFSELQDNFQNDTNEMLKFMGEIKDMMNLPEDQLVHAIRT
stoichiometry N (mass photometry): 4

B6
binding result [2]: binds
binding result [3]: binds
